{
  "source": "patent US20220267415A1",
  "target": "SARS-CoV-2 spike protein, wild type, on live virus (SARS-CoV-2-mNG / USA-WA1/2020) (SARS-CoV-2) (UniProt P0DTC2)",
  "assay": "cell-based or functional assay",
  "data": [
    {"substance": "IgG antibody carrying the VH and VL regions of Sotrovimab (S309)", "values": [
      {"measurement": "Neutralization EC50", "result": 0.17, "unit": "µg/mL"}
    ]}
  ]
}
